Experimental data: the DeepSol protein solubility set

Test: soluble on expression in E. coli; label from the status in PepcDB or PDB records

Sequence | soluble on expression in E. coli
MGSDKIHHHHHHEISDGVVRIGLLTDMSGAFSQFSGHGSVVAAQMAIDDCLAAECKGMKIELLSADHQNKTDIALAKAREWADVNKVDAYADMVNSAVALAMQSLAVQKKKAALFAGGPLRISNEDCQPEYAVQWMWDTYSQTAAAIKGLAKPKQGWYFITVDYAYGNAAVAEARKQLEAIGAHTVGESKHPLNSNDMSSQIIAAQQSKADVVAFANSGADSANAIKTASEFKLGAKKLQAAFFPTIYEIKGIGLAQAKGLRFPESFYWDIDDGTRRFSKRFMDIYKKGPPSLTHAGVYSSVYHYLKAVAATKSDDAQTVIRKMHELPIRDDVVRNPKLRPDGRMVHDYYYFRVKSPQESKGPWDLYALEKTLPGDEVFLPVAESQCRVFKGQAK | not soluble
GEFGDEDLEELCPVCGDKVSGYHYGLLTCESCKGFFKRTVQNNKRYTCIENQNCQIDKTQRKRCPYCRFQKCLSVGMKLEAVRADRMRGGRNKFGPMYKRDRALKQQKKALIR | soluble
MEHYMNTLAETMQRYVEKHDLHNLEGIKQTAIEGVWFYRSSKGNNRQPFVYQSGIIVLGQGHKNIHIGQTPVQYGPDDYLVVGVPMPLECEAFATNNEPLLGISIDISPTLLHKLVKKLEAQKFSNICEDSKRCGLKSVRMNDAMLDACKRLMKALCNDLDVAILGESLLEEIVYRTLVSKEGYVLFELAHQEGSYARVAKALNRVHAEYHEQLNVQTLAEEANMSVSAFHQAFRSVTLESPLQYIKKVRLNKARDLIQLEGKRVNDAARLVGYSSPSQFSREYKRHFNETPRSTKA | not soluble
MKAVIFIMDGLGDRPNKDGNTPLKEAKTPVMDKMAKDGICGLMNAVDVGVRPGSDTAHLAILGYDPYTTYTGRGPFEACGVGVTVKPGDIAFRCNFSSVNENFIVTDRRAGRIEDTSELEKELDGLKIDDIDIIFKESGGYRAALVLRGPGLSDKISDADPKKEGKRVKEIHPLDNSKEAKKTAEIVNKLLKIAYEKLDKHPVNEERRKQNLPVANMIVPRGVGQVPEIMQFSEKTGLKGACIAGTGLIKGIAKMVGLDVIDVEGCDGTPNSDLMAKACAIVETLKDYDFILVNVKGADEAGHDGNYELKKEIIEKIDEMLDYITKNIDKDEVYIAMSGDHSTPIEEMDHSADPLPILIWGKSVRVDDVEKFDEFSTYKGGLNWIKGTNIMPILMDLMSIAKKYGA | not soluble
MGSDKIHHHHHHMGSPYIQARLSQIGDLMSFGIIQLDYEEVLAKHYRRWIQPGDTVIDVGAHLGLHLSRFIELAGPTGQVIGFEPLPFAFDILSTQHACPTLTLNNVALAHEPGHAEFTFAQGSPGESGLRKRLYISPETVTPTLIPVKVDTLDMHTENLRSVDYIKIDIEGGEIGCLEGATRTIDKFRPLISTEYGYPSYSVYGLTKDSLFNFASSKNYVLFDIFLNRIDTRDEWHIVCDSICWDYFLVPAEKLDVFTERVARRAF | not soluble
MFSAPLENTMLCNMGGSHEKARARENERMRERERGKEQRTYFATGSLARCQAGSVRRAPGTRRHPGSSTVQGFGTVVSLEANKEMKKEETFFFASLFLYRLGGPLTGTVGYANKTTGR | not soluble
MAHHHHHHMFQRARFLLLPIDDVLPAGSRWSRVTALPTSHAHPSGASRASRTGPVTANTTSALPPTPYITFIPTLHVASVKFYDAVLDYMRESVEKNSNVVVLLEGICDNKEGRIQQMDEYMQISRSEELRAAMLEKAEKNTLYNDETIRTICDELAVNYDVLSRELETVRLQECYLRPKMAALMGKNLCNEADIDMEEVEALMLEGDNNDHSGSYGACGSGSVVPITSIGSHPAVRRSREMKVARKARATCVDWLKHGVAGEVILPWGIYHVEGIQRNVLSLNAQDEGIVFVESGNDIRHVPFGIHRDLLVL | not soluble
MEELFCIGCGAQIQTEDKEKAGFTPASSIKKAEETGELYCQRCFRLRHYNEIVDVHITDDEFLKLLYEVGDSDALVVNVVDIFDFNGSIIPGLSRFVSGNDVLLVGNKKDILPKSVKDGKVTQWLTERAHEEGMRPVDVMLTSAQNHHAIKELIQRIEALRKGRDVYVVGVTNVGKSTLINAIIKEITGDKDVITTSRFPGTTLDKIEIPLDDGSYIFDTPGIIHRHQMAHYLSAKDLKYVSPKKEIKPKTYQLNAGQTLFLGGLGRFDFIDGDKQGFTAFFDNNLKLHRTKLDGADAFYDKHVGSLLMPPGPKELADFPKLVRHEFTIKDKTDVVFSGLGWIRVQGKTDQPTIVAAWAPEGVGVVVRKAIILEHHHHHH | soluble
SNAMGKKIRTEEVDHLFEAILCLKNKEECYTFFEDVCTINELLSLSQRFEVAKMLTDKRTYLDISEKTGASTATISRVNRSLNYGNDGYEMVFSRMKEKETAGKTEE | soluble
MSLKEIGPNSLLLEDSHSLSQLLKKNYRWYSPIFSPRNVPRFADVSSITESPETLKAIRDFLVERYRTMSPAPTHILGFDARGFLFGPMIAVELGIPFVLMRKADKNAGLLIRSEPYEKEYKEAAPEVMTIRHGSIGKNSRVVLIDDVLATGGTALSGLQLVEASGAEVVEMVSILTIPFLKAAERIHSTAGGRYKNVRFIGLLSEDVLTEANCGDLNDYTGPRVLSCSDLLVNQ | soluble
SLRKLRFTRSPYTSARLGQPVDASLLLCNGGRRRFRGQVRDAWPPSARAQPHTHDVDVAAGQRQQVHTALRPVRRGDQRAAMVTARSIGPLGLAGRQSSQSVPGLVRVLPPFLSRKHLPSRLAKLREIDGLLPTLIRGQGTEFDSLREYVVGDDVRSIDWRASARRADVMVRTWRPERDRRVVIVLDTGRMAAGRVGVDPTAADPAGWPRLDWSMDAALLLAALASRAGDHVDFLAHDRISRAGVFGASRSELLAQLVDAMAPLRPALIESDWHAMIATILRRTRRRSLVVLLTDLNATALDEGLLPVLPQLSARHHVLVAAVADPRVDQLAAGRSDAAAVYDAAAAERARNDRRAIASQLRRGGVDVIDAPPAEIAPGLADRYLAMKATGRL | not soluble
MHTMHIPSGDVLIPKPKLITEETDPLHIIKTRQKTHGRPVTIAGPMVRYSKLPFRQLCREYNVDIVYSPMILAREYVRNEHARISDLSTNNEDTPLIVQVGVNNVADLLKFVEMVAPYCDGIGINCGCPIKEQIREGIGCALIYNSDLLCSMVHAVKDKYGDKLRIETKIRIHEALDETVELCRKLCDAGVDWITIHGRTRRTRSSQPANLDAIKYIIENISDKNVPVIANGDCFKLSDLERITKYTGAHGVMAVRGLLSNPALFAGYTTCPWGCIEKFCYWALEFGGLPFQLAQHHLYCMLENMELKKSLLKKMMNLKNYISLIDWFNKTFEFKRYGEDGFGMGVEIPYKANSCVQRSASVVERQE | soluble
MHSALWVSKTGMAAQDTKMTAISNNLANVNTVGFKRDRVVFEDLFYSIQRQPGAQVDQVNELPSGVQLGSGVRVVGTQKVFTQGNTQNTTQDLDLAVMGQGFFQIENSDGQIMYTRNGQFHINSEGLMVNSQGLPLEPQIQI | not soluble
MPQSFTSIARIGDYILKSPVLSKLCVPVANQFINLAGYKKLGLKFDDLIAEENPIMQTALRRLPEDESYARAYRIIRAHQTELTHHLLPRNEWIKAQEDVPYLLPYILEAEAAAKEKDELDNIEVSK | soluble
MTITPPTPNGDLHIGHIAGPFLAADVFTRVQRQRGHDCVLVSYSDDYQSYMLRKGLEQGVDPVVLAHRNSDRIEASLAAINIKPDNWMRPHNNPWFAEAVGEVFTALRDAGAIEFRDSSEPYCPDCAVWGYEAFARGQCNYCGAESDASQCENCAQAPDAELMSGLHCKLCQQPSQWKTAHRAFLKLADFKPQLGNRLLGQAWRKPLDSWLRDTLEHLHDWGVTRPGDGGLDLQADGACRVHTWFMGLAGYMAAFREYADSIGRPELFGQYWQSGQGTLVHFLGFDCVFSHAIVYPAQLSVLQGIKVRQRFVPNQFLKLDGLNLSTSRNHAIWVGDLARQACADSARLYLASIAPEDSEGDFRMTHFFEWREELFNGF | not soluble
MSLSFDFSPDFNPLAARMRPASVEEYIGQSHLLGEGKPLRQALLAGKVHSMLLWGPPGTGKTTLAELVARYANAHVERISAVTSGVKEIRAAIEQAKNVAQSRGQRTLLFVDEVHRFNKSQQDAFLPFIEDGTVIFIGATTENPSFEVNNALLSRCRVYLIKRLEDDAIGQILAQANSDEARGLGKRGLLLKAELKSAIARLCDGDARKALNLLELMSDLLPDGGEYNLELLSEVAGHQAAGYDKNGDQYYDLISAVHKSIRGSAPDAALYWFCRILEGGGDPLYVARRLLAIASEDIGNADPNAMTVALNAWDCFHRVGPAEGERAIAQAVIYLASAPKSNAVYTAFKAARVLARETGNAPVPNHLRNAPTKLMSELGVGEGYRYAHDEDGAFAAGENYFPEVLQHSRIYQPTARGFEKRIRDKLAHLDALNQQSEGHHHHHH | soluble
MGSDKIHHHHHHMLIFVMKPRSNPVTGGFHSDKFANWNTMPLETLPVISLAGEPDALSRELGESFRTFGFAMVRDHGIDPDLIARAWDLTAQFFALPEAEKRSYYLDGLAGARGYTPFGTEIAKGARLHDLKEFWHVGRDLPAGHPLSASMPPNVWPARPEGFRQTFETLYGEFDKVGARILSRIAVWLGLDENWFDPAIEDGNSVMRLLHYPPVPDAESGAIRAGAHEDINLITLLLGAEEAGLELLSRQGEWIGVSPPEGALVVNIGDMLQRLTNHVLPSTTHRVRNPEGERARFSRYSMPFFLHLRSDFPFVTLPQCISDENPDRYPVSITADDYLQERLREIGLRK | not soluble
MSLQITGVNQYHLEHRLEEPFHPTWIPGYPQSTHELELFEIETDAGITGYGASPSFAGGLDYETPLELFLTGEDPHNVDGILGKLETVNLVGPRPWHIEMALWDIIGKDAGKPVCELFGAEQRAIPAYASSGEIQPADERIDYVEQRIDEGFDAVKLRVTETDHIETVRAVRESFPDLTLMVDANKGWAVRVMEEPTEWSFSDALEFARELDAVGGVEWLEEPLHRHDYDGYARLRDAVDVNIAGGEFNNGIHHFREFVDRGSLDILQPDAALATGIRRAVDVARMGEANGLQFVPHTWTNAVGFAANLHVMTAVGSPWCEYPMEPPWTPDVWSFMLEDGFEHDDGVVRAPSKPGLGIEIPDKVLEDAGEGHHHHHH | soluble
GPGSMPGGGLEVIGTPALPHPSSASDADDAAAGCSFRLSQSGGDPRYVSSRVAGRMQDARHGAESRLVDGTATFLDFLAETSVERPLRVRLRQRARQSFVFFNLETAIDCLNLSWEAYAVQESRGDDFISTGIQVNAAEVPRAALGFVERVAMALLGLCFNPSPHVCHALDDSEEDAAAAISFTSGGDRTPLLDERRASRSRSPVRAPLGAEVASSATRATQADLAAAALFPHCGSSSTRSGSCQPFFRQPAPAASATSPCFGGTSSPPGAAAAGASSFSSSPSNRIGSFPTSASAATANAGADAARLPHMNPEQYGYHRVAVLEARGVQVVVVRMDTSGSCPVHIGKVPRLVIAFRGTDNVANVMEDIRFRQRTWKEMKTPTLSGRASVHSGFLELWMSLKERVIDVVLRELRSQCTPLEGSNAEVSAAGTTGHAGEGASTVAGCSPSQAGHDMFHATVPFSDIWSLRRNGGGRGCADTRQGAFGSEQGGFEGFMRVYVTGHSLGGALASLCAYTLRRMLLLIQYPEPDLVVYTFGQPRIGNFVFKQYYNRAVPCTFRVVNESDAVSGFNFFGGHHVGVQVNIDRHGNYICKPMYIERMFRPTRGRGFALANHAISAYASSLNAMANVYTHGACPLRCRQPYMGEIVSVSSTNSE | not soluble
IVGGYNCKDGEVPWQALLINEENEGFCGGTILSEFYILTAAHCLYQAKRFKVRVGDRNTEQEEGGEAVHEVEVVIKHNRFTKETYDFDIAVLRLKTPITFRMNVAPASLPTAPPATGTKCLISGWGNTASSGADYPDELQCLDAPVLSQAKCEASYPGKITSNMFCVGFLEGGKDSCQGDSGGPVVCNGQLQGVVSWGDGCAQKNKPGVYTKVYNYVKWIKNTIAANS | soluble
DIIITAGGKNITPAEIESRLKFSHYISDAVIVGDKRKFLTCLIMIDQENVEKFAQDRKVPFSNFASLCAAKEVRELIAAEVAQVNKEFARVEQIKDFRLIDVLLTAEDDELTATMKLKRSFVEKKHAHLIEDMYK | soluble
